The values below come from article PMC2114503.

Like-named read-outs stand apart in the source and are kept apart here.

As a reminder, the stoichiometry N is a count of units in the complex or per binding partner.

Holding throughout (assay): co-sedimentation
The target of experiment [1] is rabbit skeletal muscle actin (rabbit) (UniProt P68135).
Experiment [2] shares this target. To be noted: scale: molecules of actin per molecule of the 30,000-D protein.
Experiment [3] has the same target. The source holds these as a separate data set.
The target is the same in experiment [4]. This is another data set of the same source.
For experiment [5] the target is unchanged. This is another data set of the same source.

For the substance “Dictyostelium discoideum 30,000-D actin-binding protein (natural protein)”, the fraction of the 30,000-D protein co-sedimenting with actin in experiment [1] worked out at 29%; in experiment [3], 14%; in experiment [4], 73%; in experiment [5], 99%. Further, the stoichiometry N in experiment [2] turned out to be 10.3; in experiment [5] (scale: molecules of actin per molecule of the 30,000-D protein) it was 9.5.
